Measurements as given in article PMC8224933, “Plasticity of seven-transmembrane-helix receptor heteromers in human vascular smooth muscle cells” (PLoS ONE, 2021).

T1: α1D-adrenoceptor (human (endogenous in hVSMCs), UniProt P25100 1-572)
T1 construct: α1D-adrenoceptor, endogenous in human vascular smooth muscle cells; also called α1D-AR; source: endogenous, hVSMCs (primary aortic smooth muscle cells, ATCC PCS-100-012), fixed cells
T1 sequence (looked up): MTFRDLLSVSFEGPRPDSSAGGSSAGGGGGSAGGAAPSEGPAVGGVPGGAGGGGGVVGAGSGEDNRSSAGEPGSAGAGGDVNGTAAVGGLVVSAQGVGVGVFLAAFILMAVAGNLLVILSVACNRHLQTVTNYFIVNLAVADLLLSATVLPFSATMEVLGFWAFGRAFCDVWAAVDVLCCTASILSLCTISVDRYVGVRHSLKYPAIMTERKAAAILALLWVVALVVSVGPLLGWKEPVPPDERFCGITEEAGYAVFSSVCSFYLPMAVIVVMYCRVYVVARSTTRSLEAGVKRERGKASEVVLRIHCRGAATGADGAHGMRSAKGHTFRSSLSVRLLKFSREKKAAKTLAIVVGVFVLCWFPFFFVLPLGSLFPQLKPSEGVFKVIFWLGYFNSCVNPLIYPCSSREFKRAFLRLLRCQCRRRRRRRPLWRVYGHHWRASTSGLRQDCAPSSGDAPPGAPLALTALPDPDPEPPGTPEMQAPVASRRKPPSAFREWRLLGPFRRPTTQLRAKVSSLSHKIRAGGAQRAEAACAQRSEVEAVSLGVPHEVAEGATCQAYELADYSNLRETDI

B1: α1B-adrenoceptor (receptor, human (endogenous in hVSMCs), UniProt P35368 1-520, looked up)
chain: MNPDLDTGHNTSAPAHWGELKNANFTGPNQTSSNSTLPQLDITRAISVGLVLGAFILFAIVGNILVILSVACNRHLRTPTNYFIVNLAMADLLLSFTVLPFSAALEVLGYWVLGRIFCDIWAAVDVLCCTASILSLCAISIDRYIGVRYSLQYPTLVTRRKAILALLSVWVLSTVISIGPLLGWKEPAPNDDKECGVTEEPFYALFSSLGSFYIPLAVILVMYCRVYIVAKRTTKNLEAGVMKEMSNSKELTLRIHSKNFHEDTLSSTKAKGHNPRSSIAVKLFKFSREKKAAKTLGIVVGMFILCWLPFFIALPLGSLFSTLKPPDAVFKVVFWLGYFNSCLNPIIYPCSSKEFKRAFVRILGCQCRGRGRRRRRRRRRLGGCAYTYRPWTRGGSLERSQSRKDSLDDSGSCLSGSQRTLPSASPSPGYLGRGAPPPVELCAFPEWKAPGALLSLPAPEPPGRRGRHDSGPLFTFKLLTEPESPGTDGGASNGGCEAAADVANGQPGFKSNMPLAPGQF
notes: α1B-adrenoceptor, endogenous in human vascular smooth muscle cells; also called α1B-AR; source: endogenous, hVSMCs (primary aortic smooth muscle cells, ATCC PCS-100-012), fixed cells
B2: α1A-adrenoceptor (receptor, human (endogenous in hVSMCs), UniProt P35348 1-466, looked up)
chain: MVFLSGNASDSSNCTQPPAPVNISKAILLGVILGGLILFGVLGNILVILSVACHRHLHSVTHYYIVNLAVADLLLTSTVLPFSAIFEVLGYWAFGRVFCNIWAAVDVLCCTASIMGLCIISIDRYIGVSYPLRYPTIVTQRRGLMALLCVWALSLVISIGPLFGWRQPAPEDETICQINEEPGYVLFSALGSFYLPLAIILVMYCRVYVVAKRESRGLKSGLKTDKSDSEQVTLRIHRKNAPAGGSGMASAKTKTHFSVRLLKFSREKKAAKTLGIVVGCFVLCWLPFFLVMPIGSFFPDFKPSETVFKIVFWLGYLNSCINPIIYPCSSQEFKKAFQNVLRIQCLCRKQSSKHALGYTLHPPSQAVEGQHKDMVRIPVGSRETFYRISKTDGVCEWKFFSSMPRGSARITVSKDQSSCTTARVRSKSFLQVCCCVGPSTPSLDKNHQVPTIKVHTISLSENGEEV
notes: α1A-adrenoceptor, endogenous in human vascular smooth muscle cells; also called α1A-AR; source: endogenous, hVSMCs (primary aortic smooth muscle cells, ATCC PCS-100-012), fixed cells

Columns and labels:
Test in all cases: proximity ligation; Duolink II PLA on hVSMCs fixed with 4% paraformaldehyde; two primary antibodies from differing species (1:500, 37°C, 105 min); control: omission of one primary antibody; PLA signals per cell counted; cells untreated or incubated 72 h with non-targeting, CXCR4, ACKR3 or AVPR1A siRNA
Conditions in all cases: partners not purified
α1D-adrenoceptor = biological target: T1, α1D-adrenoceptor
α1A-adrenoceptor = biological target: B2
α1B-adrenoceptor = biological target: B1

Binder | PLA signals after AVPR1A siRNA, % of NT siRNA (α1D-adrenoceptor) | PLA signals after AVPR1A siRNA, % of NT siRNA (α1A-adrenoceptor) | PLA signals after AVPR1A siRNA, % of NT siRNA (α1B-adrenoceptor)
B1 | 141% |  | 
chemokine (C-X-C motif) receptor 4 (receptor, human (endogenous in hVSMCs), UniProt P61073 1-352, looked up, chemokine (C-X-C motif) receptor 4 (CXCR4), endogenous in human vascular smooth muscle cells; also called CXCR4; source: endogenous, hVSMCs (primary aortic smooth muscle cells, ATCC PCS-100-012), fixed cells) MEGISIYTSDNYTEEMGSGDYDSMKEPCFREENANFNKIFLPTIYSIIFLTGIVGNGLVILVMGYQKKLRSMTDKYRLHLSVADLLFVITLPFWAVDAVANWYFGNFLCKAVHVIYTVNLYSSVLILAFISLDRYLAIVHATNSQRPRKLLAEKVVYVGVWIPALLLTIPDFIFANVSEADDRYICDRFYPNDLWVVVFQFQHIMVGLILPGIVILSCYCIIISKLSHSKGHQKRKALKTTVILILAFFACWLPYYIGISIDSFILLEIIKQGCEFENTVHKWISITEALAFFHCCLNPILYAFLGAKFKTSAQHALTSVSRGSSLKILSKGKRGGHSSVSTESESSSFHSS |  | 91% | 72%
B2 |  |  | 101%
